Changes are numbered by the printed parent chain. Numbers in names are those of the source.
B1: Y341A (protein)
chain: VANIEERPIKAAIGERKQTFEDALEEQIQLEEQELKQKQLKEAEGPLPIKAKPKQPFLKRGEGLARFTNAKSKFQK
B2: ED339RR (protein)
chain: B1 chain with E21R, D22R, A23Y
B3: R378E (protein)
chain: B1 chain with A23Y, R60E
B4: R384E (protein)
chain: B1 chain with A23Y, R66E
B5: K372E (protein)
chain: B1 chain with A23Y, K54E
B6: K377E (protein)
chain: B1 chain with A23Y, K59E
B7: F338A (protein)
chain: B1 chain with F20A, A23Y
B8: F385A (protein)
chain: B1 chain with A23Y, F67A
B9: EE349RR (protein)
chain: B1 chain with A23Y, E31R, E32R
B10: PN2-3C peptide (PN2-3's C-terminus, aa 372-394 of CPAP) (peptide)
peptide: KQPFLKRGEGLARFTNAKSKFQK

These binders were tested against tubulin heterodimer (porcine/bovine brain tubulin) ( (porcine or bovine brain), UniProt Q6B856 1-445) (assay: ITC).
Sequence of tubulin heterodimer (porcine/bovine brain tubulin) (chain, as listed by the source, chain 1 of 2): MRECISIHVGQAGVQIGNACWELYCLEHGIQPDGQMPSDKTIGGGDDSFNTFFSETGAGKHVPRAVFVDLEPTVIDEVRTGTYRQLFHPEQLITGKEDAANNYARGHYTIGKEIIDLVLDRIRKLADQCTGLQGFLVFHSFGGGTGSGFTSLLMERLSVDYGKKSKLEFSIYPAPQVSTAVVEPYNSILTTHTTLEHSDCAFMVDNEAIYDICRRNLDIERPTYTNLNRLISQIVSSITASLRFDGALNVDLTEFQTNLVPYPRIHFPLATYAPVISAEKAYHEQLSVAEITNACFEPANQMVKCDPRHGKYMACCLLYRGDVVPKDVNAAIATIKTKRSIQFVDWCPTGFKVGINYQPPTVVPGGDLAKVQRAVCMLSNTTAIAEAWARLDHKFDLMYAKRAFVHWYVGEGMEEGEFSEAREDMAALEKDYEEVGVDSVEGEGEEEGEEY
Sequence of tubulin heterodimer (porcine/bovine brain tubulin) (Q6B856 whole entry, chain 2 of 2): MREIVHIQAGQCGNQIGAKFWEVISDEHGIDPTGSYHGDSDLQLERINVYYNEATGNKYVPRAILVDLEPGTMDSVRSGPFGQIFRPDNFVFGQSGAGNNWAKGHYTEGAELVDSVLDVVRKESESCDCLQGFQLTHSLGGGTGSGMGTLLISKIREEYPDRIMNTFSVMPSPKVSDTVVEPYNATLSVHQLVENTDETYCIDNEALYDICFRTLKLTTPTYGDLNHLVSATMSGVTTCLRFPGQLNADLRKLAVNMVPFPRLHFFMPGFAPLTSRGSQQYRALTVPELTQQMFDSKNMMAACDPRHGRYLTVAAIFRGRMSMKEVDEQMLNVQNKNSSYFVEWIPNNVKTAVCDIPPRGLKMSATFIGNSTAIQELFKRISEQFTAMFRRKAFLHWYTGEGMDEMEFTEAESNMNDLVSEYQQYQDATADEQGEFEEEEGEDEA
For B1, the Kd was 136 nM.
B2 gave a Kd of 143 nM.
B3 gave a Kd of 800 nM.
For B4, the Kd was 1900 nM.
With B5 the Kd was 400 nM.
With B6 the Kd was 1300 nM.
In the case of B7, the Kd is reported as 116 nM.
In the case of B8, the Kd is reported as 100 nM.
In the case of B9, the Kd is reported as 256 nM.

Each binder was assayed against DARPin-tubulin complex (used in ITC) ( (porcine or bovine brain), UniProt Q6B856 1-445) (assay: ITC).
Sequence of DARPin-tubulin complex (used in ITC) (chain, as listed by the source, chain 1 of 3): as the sequence (chain, as listed by the source, chain 1 of 2) above
Sequence of DARPin-tubulin complex (used in ITC) (Q6B856 whole entry, chain 2 of 3): as the sequence (Q6B856 whole entry, chain 2 of 2) above
Sequence of DARPin-tubulin complex (used in ITC) (chain, as listed by the source, chain 3 of 3): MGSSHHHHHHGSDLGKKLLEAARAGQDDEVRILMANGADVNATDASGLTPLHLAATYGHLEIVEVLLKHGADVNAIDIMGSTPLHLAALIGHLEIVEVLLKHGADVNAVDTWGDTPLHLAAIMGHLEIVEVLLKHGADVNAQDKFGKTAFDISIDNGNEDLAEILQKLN
With B10 the Kd was 3400 nM.

— publication PMC4912634 (2016)
